Source: article PMC9509318 (Nature Communications, 2022)

What was measured:
Conditions in all cases: both partners purified
[1] = target: T1, Pfs48/45 full-length ectodomain (Plasmodium falciparum, UniProt Q8I6T1); assay: negative stain electron microscopy
[2] = target: Pfs48/45-D2 + 3 (central and C-terminal domains) (Plasmodium falciparum, UniProt Q8I6T1); assay: crystal structure
[3] = target: T1, Pfs48/45 full-length ectodomain; assay: SPR
[4] = target: Pfs48/45-D3 (C-terminal 6-cys domain of Pfs48/45) (Plasmodium falciparum 3D7 …, UniProt Q8I6T1); assay: SPR
Sequence of Pfs48/45-D3 (C-terminal 6-cys domain of Pfs48/45) (Q8I6T1 291-428): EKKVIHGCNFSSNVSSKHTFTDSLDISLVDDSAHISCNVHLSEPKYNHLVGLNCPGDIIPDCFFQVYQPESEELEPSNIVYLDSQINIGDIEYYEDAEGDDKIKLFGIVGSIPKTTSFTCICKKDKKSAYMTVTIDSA

T1 sequence (Q8I6T1 27-427): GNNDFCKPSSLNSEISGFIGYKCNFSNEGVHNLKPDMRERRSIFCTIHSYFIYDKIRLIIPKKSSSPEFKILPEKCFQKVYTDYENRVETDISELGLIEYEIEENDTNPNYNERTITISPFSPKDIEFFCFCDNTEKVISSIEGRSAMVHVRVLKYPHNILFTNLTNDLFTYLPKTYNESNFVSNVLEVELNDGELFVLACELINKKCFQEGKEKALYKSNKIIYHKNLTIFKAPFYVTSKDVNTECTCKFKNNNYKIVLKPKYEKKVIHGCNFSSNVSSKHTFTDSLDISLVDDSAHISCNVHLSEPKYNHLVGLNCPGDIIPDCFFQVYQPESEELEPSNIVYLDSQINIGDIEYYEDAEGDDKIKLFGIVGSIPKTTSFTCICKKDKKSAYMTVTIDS
Sequence of Pfs48/45-D2 + 3 (central and C-terminal domains) (Q8I6T1 159-428): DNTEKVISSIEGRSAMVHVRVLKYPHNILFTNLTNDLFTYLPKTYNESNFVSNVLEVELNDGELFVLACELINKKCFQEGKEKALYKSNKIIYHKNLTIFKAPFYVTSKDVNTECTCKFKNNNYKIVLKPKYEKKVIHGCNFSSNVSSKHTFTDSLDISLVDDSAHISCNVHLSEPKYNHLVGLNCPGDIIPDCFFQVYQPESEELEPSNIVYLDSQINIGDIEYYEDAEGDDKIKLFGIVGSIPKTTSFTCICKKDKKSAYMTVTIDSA

B1: 10D8 Fab fragment (Fab, V domains shown)
VH: EVMLVESGGDLVKPGGSLKVSCAASGFTFSNYAMSWVRQTPEKRLEWVATISSGASYTHYPDSVKGRFTISRDNAKNTLYLQMSSLRSEDTAMYYCGRQVNRHDRALDAMDYWGQGTSVTVSP
VL: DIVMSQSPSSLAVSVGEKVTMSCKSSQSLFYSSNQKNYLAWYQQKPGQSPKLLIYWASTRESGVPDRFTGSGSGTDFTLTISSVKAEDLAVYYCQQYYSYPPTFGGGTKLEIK
notes: source: hybridoma cell line, purified using protein A/G, ficin cleaved to Fab
- binding result [1]: binds
- binding result [2]: binds

B2: 10D8 monoclonal antibody (antibody, V domains shown)
VH: B1 VH
VL: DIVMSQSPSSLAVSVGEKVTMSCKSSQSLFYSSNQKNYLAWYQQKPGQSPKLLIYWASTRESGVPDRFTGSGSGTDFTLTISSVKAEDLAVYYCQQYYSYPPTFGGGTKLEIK
notes: source: hybridoma cell line, purified using protein A/G
- binding result [3]: binds

B3: 32F3 monoclonal antibody (antibody, V domains shown)
VH: DVKLVESGGGLVKLGGSLKLSCAASGFTFSSYYMSWVRQTPEKRLELVAAINNNGGSTYYPDTVKGRFTISRDNAKNTLNLQMNSLKSEDTALYYCTRQHYGNLYFFDYWGQGTTLTVSS
VL: QIVLSQSPAILSASPGEKVTMTCRASSSVTYIHWYQQKPGSSPKPWIQATSSLASGVPARFSGSGSGTSYSLSISRVEAEDAATYYCQQWSSNPLTFGAGTKLELK
notes: as for B2
- Kd [4]: 5.2 nM
